To fix the notation:
B1: Peroxisome proliferator-activated receptor delta, residues 71 to 145; numbered along this chain, Q03181 (parent)
chain: NMECRVCGDKASGFHYGVHACEGCKGFFRRTIRMKLEYEKCERSCKIQKKNRNKCQYCRFQKCLALGMSHNAIRF

± gives the uncertainty stated by the source.

Variants of B1 are the subject of the data set. Nature of the data set: abundance fitness (aPCA) (normalised: wild type 0, dead -1); higher = more abundant; growth selection in yeast, the domain comes from the species named. The settings on record: Homo sapiens.
In the case of NMECRVCGDKASGFHYGVHACEGCKGFFRRTIRMKLEIEKCERSCKIQKKNRNKCQYCRFQKCLALGMSHNAIRF [Y38I], the abundance fitness is -0.483 ± 0.12.
For NMECRVCGDKASGFHYGVHACEGCKGFFRRTIRMKLEAEKCERSCKIQKKNRNKCQYCRFQKCLALGMSHNAIRF [Y38A] the value was -0.738 ± 0.079; for NMECRVCGDKASGFNYGVHACEGCKGFFRRTIRMKLEYEKCERSCKIQKKNRNKCQYCRFQKCLALGMSHNAIRF [H15N], -0.341 ± 0.12; for NMECRVCGDKASGFHYGVHACEGCKGFFRRTIRMKLEYEKCERSCKIQKKNTNKCQYCRFQKCLALGMSHNAIRF [R52T], -0.012 ± 0.047.
Next, NMECRVCGDKASGFHYGVHACEGCKGFFRRTIRMKLEYEKCERSCKIQKKNFNKCQYCRFQKCLALGMSHNAIRF [R52F]: -0.155 ± 0.12.
For NMECRVCGDKASGFHYGVHACEGCKGFFRRTIRMKLEYEKCERSCKIQKKNRNKCQYCRFQKCLADGMSHNAIRF [L66D] the value was -0.521 ± 0.12.
With NMECRVCGDKASGFHYGVHACEGCKGFFRRTIRMKLEYEKCERSCKIQKKNRNKCQYCRFQKCLACGMSHNAIRF [L66C], the abundance fitness is -0.15 ± 0.077.
For HMECRVCGDKASGFHYGVHACEGCKGFFRRTIRMKLEYEKCERSCKIQKKNRNKCQYCRFQKCLALGMSHNAIRF [N1H] the value was -0.155 ± 0.11.
In the case of CMECRVCGDKASGFHYGVHACEGCKGFFRRTIRMKLEYEKCERSCKIQKKNRNKCQYCRFQKCLALGMSHNAIRF [N1C], the abundance fitness was -0.421 ± 0.11.
Next, NMECRVCGDKASGFHYGVHPCEGCKGFFRRTIRMKLEYEKCERSCKIQKKNRNKCQYCRFQKCLALGMSHNAIRF [A20P]: -0.792 ± 0.15.
For NMECRVCGDKASGFHYGVHHCEGCKGFFRRTIRMKLEYEKCERSCKIQKKNRNKCQYCRFQKCLALGMSHNAIRF [A20H] the value was -0.594 ± 0.22; for NMECRVCGDKASGFHYGVHECEGCKGFFRRTIRMKLEYEKCERSCKIQKKNRNKCQYCRFQKCLALGMSHNAIRF [A20E], -0.886 ± 0.16.
With NMECRVCGDKASGFHYGVHACEGNKGFFRRTIRMKLEYEKCERSCKIQKKNRNKCQYCRFQKCLALGMSHNAIRF [C24N], the abundance fitness is -0.648 ± 0.3.
For NMSCRVCGDKASGFHYGVHACEGCKGFFRRTIRMKLEYEKCERSCKIQKKNRNKCQYCRFQKCLALGMSHNAIRF [E3S] the value was -0.033 ± 0.041; for NMNCRVCGDKASGFHYGVHACEGCKGFFRRTIRMKLEYEKCERSCKIQKKNRNKCQYCRFQKCLALGMSHNAIRF [E3N], -0.079 ± 0.068; for NMECRVCGDKASGFHYGVHACEGCKGFFRRTIRMKLEYEKCERSCKIQKKNRNKCQYCRFQKCLALGMSHNFIRF [A72F], -0.27 ± 0.1.
Next, NMECRVCGDKASGFHYGVHACEGCKGFFRRTIRMKLEYEKCERSCKIQKKNRNKCQYCRFQKCLALGMSHNDIRF [A72D]: 0.132 ± 0.048; NMECDVCGDKASGFHYGVHACEGCKGFFRRTIRMKLEYEKCERSCKIQKKNRNKCQYCRFQKCLALGMSHNAIRF [R5D]: 0.032 ± 0.05; NMECRVCGDKASGFHYGVHACEGCKGFKRRTIRMKLEYEKCERSCKIQKKNRNKCQYCRFQKCLALGMSHNAIRF [F28K]: -0.758 ± 0.17.
For NMECRVCGDKASGYHYGVHACEGCKGFFRRTIRMKLEYEKCERSCKIQKKNRNKCQYCRFQKCLALGMSHNAIRF [F14Y] the value was 0.038 ± 0.063.
NMECRVCGDKASGLHYGVHACEGCKGFFRRTIRMKLEYEKCERSCKIQKKNRNKCQYCRFQKCLALGMSHNAIRF [F14L]: the abundance fitness was 0.085 ± 0.034.
For the variant NMECRVCGDKASGFHYGVHACEGCKGFFRRTIRMKLEYEKCERSCKIQKKNRNKCQYCRFQTCLALGMSHNAIRF [K62T], the abundance fitness is -0.234 ± 0.063.
Next, NMECRVCGDKASGFHYGVHACEGCKGFFRRTIFMKLEYEKCERSCKIQKKNRNKCQYCRFQKCLALGMSHNAIRF [R33F]: 0.208 ± 0.1; NMECRVCGDKASGFHYGVHACEGCKGFFRRTIRMKLEYEKCERSCKIQKKNRNKCQYCRFQKCLALGMSNNAIRF [H70N]: 0.013 ± 0.087.
For NMECRVCGDKASGFHYGVHACEGCKGFFRRTIRMKLEYEKCERSCKIQKKNRNKCQYCRFQKCLALGMSFNAIRF [H70F] the value was 0.039 ± 0.15.
On to NMECRVCGDKASGFHYGVHACEGCKGVFRRTIRMKLEYEKCERSCKIQKKNRNKCQYCRFQKCLALGMSHNAIRF [F27V], for which the abundance fitness was -0.951 ± 0.11.
As for NMECRVCGDKASGFHYRVHACEGCKGFFRRTIRMKLEYEKCERSCKIQKKNRNKCQYCRFQKCLALGMSHNAIRF [G17R], the abundance fitness is -0.777 ± 0.076.
As for NMECRVCGDKASGFHYGVHACEGCKGFFRRTIRMKLEYEKCERSCKIQKKNRNKCQYRRFQKCLALGMSHNAIRF [C58R], the abundance fitness is -0.771 ± 0.069.
As to NMECRVCGDIASGFHYGVHACEGCKGFFRRTIRMKLEYEKCERSCKIQKKNRNKCQYCRFQKCLALGMSHNAIRF [K10I], the abundance fitness is -0.052 ± 0.071.
NMECRVCGDPASGFHYGVHACEGCKGFFRRTIRMKLEYEKCERSCKIQKKNRNKCQYCRFQKCLALGMSHNAIRF [K10P]: the abundance fitness was -0.268 ± 0.057.
With NMECRVCGDEASGFHYGVHACEGCKGFFRRTIRMKLEYEKCERSCKIQKKNRNKCQYCRFQKCLALGMSHNAIRF [K10E], the abundance fitness was 0.007 ± 0.039.
Turning to NMECRVCGDGASGFHYGVHACEGCKGFFRRTIRMKLEYEKCERSCKIQKKNRNKCQYCRFQKCLALGMSHNAIRF [K10G], the abundance fitness is -0.191 ± 0.035.
For NMECRVCGDKASGFHYGVHACEGCKGFFRRRIRMKLEYEKCERSCKIQKKNRNKCQYCRFQKCLALGMSHNAIRF [T31R] the value was -0.778 ± 0.072; for NMECRVCGDKASGFHYGVHAAEGCKGFFRRTIRMKLEYEKCERSCKIQKKNRNKCQYCRFQKCLALGMSHNAIRF [C21A], -0.705 ± 0.099; for NMECRVCGDKASGFHYGVHACEGCKGFFRRTIRMKLEYEKCERSCKIQKKNRNKCQYCRFQKCLYLGMSHNAIRF [A65Y], -0.301 ± 0.11.
Next, NMECRVCGDKASGFHYGVHACEGCKGFFRRTIRMKLEYEKCERSCKIQKKNRNKCQYCRFQKCLHLGMSHNAIRF [A65H]: -0.288 ± 0.089.

Values taken from the Human Domainome abundance scans (Beltran et al. 2025).
